Results reported in PMC5516325, “Sequence-based identification of inositol monophosphatase-like histidinol-phosphate phosphatases (HisN) in Corynebacterium glutamicum, Actinobacteria, and beyond” (BMC Microbiology, 2017).
Blank lines part the entries; values can stand above or below the molecule they belong to.

Experiments:
Type in all cases: biochemical, Corynebacterium glutamicum
[1] = tested on: T1, Cg0911; test: phosphate release, malachite green; Hill equation fit; details: 5 mM MgSO4, 100 mM triethanolamine, pH 7.35, 30 °C
T1 construct: tag-free (C-terminal intein tag self-cleaved, IMPACT system), expressed in E. coli ER2566
Description: phosphate release, malachite green; Hill equation fit on Cg0911

[2] = tested on: T1, Cg0911; test: phosphate release from HolP, malachite green; activation; details: activator (also reaction product); 500 μM HolP, 5 mM MgSO4, 1 M triethanolamine, pH 7.35, 30 °C; read-out: Half maximal stimulation
[3] = substrate: N[C@H](COP(=O)(O)O)Cc1c[nH]cn1; test: phosphate release, malachite green; Hill equation fit; details: 5 mM MgSO4, 100 mM triethanolamine, pH 7.35, 30 °C
Description: phosphate release, malachite green; Hill equation fit on HisN (HisNCg)

Molecule: N[C@H](COP(=O)(O)O)Cc1c[nH]cn1 [L-histidinol-phosphate]
Km [1]: 638 ± 70.5 µM

EC50 [2]: 860 ± 60 µM
Molecule: N[C@H](CO)Cc1c[nH]cn1 [L-histidinol]

B1: HisN (HisNCg) (Corynebacterium glutamicum ATCC 13032) (protein)
chain: MSKYADDLALALELAELADSITLDRFEASDLEVSSKPDMTPVSDADLATEEALREKIATARPADSILGEEFGGDVEFSGRQWIIDPIDGTKNYVRGVPVWATLIALLDNGKPVAGVISAPALARRWWASEGAGAWRTFNGSSPRKLSVSQVSKLDDASLSFSSLSGWAERDLRDQFVSLTDTTWRLRGYGDFFSYCLVAEGAVDIAAEPEVSLWDLAPLSILVTEAGGKFTSLAGVDGPHGGDAVATNGILHDETLDRLK
notes: tag-free (C-terminal intein tag self-cleaved, IMPACT system, NEB), expressed in E. coli ER2566
Km [3]: 23.6 ± 1.4 µM
kcat [3]: 1.04 ± 0.06 s⁻¹
kcat/Km [3]: 44100 M⁻¹ s⁻¹
